From publication doi:10.1101/854158 (bioRxiv, 2019)

Assays:
Assay in all cases: cryo-EM structure
FANCE = target: T1, FANCE (human, UniProt Q9HB96 1-536)
T1 sequence: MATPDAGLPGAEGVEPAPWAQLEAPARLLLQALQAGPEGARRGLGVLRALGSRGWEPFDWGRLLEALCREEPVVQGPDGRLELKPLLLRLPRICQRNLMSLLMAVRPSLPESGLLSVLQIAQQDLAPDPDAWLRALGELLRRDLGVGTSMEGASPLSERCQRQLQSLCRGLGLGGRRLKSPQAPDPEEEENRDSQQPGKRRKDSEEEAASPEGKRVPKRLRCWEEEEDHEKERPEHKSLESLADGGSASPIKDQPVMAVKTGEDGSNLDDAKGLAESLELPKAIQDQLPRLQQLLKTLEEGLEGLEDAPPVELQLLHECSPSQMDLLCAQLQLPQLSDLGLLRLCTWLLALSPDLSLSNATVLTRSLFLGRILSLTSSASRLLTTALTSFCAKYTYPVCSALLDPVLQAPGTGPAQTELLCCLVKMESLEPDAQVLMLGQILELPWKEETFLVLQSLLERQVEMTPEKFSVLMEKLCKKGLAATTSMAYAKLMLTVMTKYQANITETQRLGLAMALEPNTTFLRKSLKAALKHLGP

FANCC = target: T2, FANCC (human, UniProt Q00597 1-558)
T2 sequence: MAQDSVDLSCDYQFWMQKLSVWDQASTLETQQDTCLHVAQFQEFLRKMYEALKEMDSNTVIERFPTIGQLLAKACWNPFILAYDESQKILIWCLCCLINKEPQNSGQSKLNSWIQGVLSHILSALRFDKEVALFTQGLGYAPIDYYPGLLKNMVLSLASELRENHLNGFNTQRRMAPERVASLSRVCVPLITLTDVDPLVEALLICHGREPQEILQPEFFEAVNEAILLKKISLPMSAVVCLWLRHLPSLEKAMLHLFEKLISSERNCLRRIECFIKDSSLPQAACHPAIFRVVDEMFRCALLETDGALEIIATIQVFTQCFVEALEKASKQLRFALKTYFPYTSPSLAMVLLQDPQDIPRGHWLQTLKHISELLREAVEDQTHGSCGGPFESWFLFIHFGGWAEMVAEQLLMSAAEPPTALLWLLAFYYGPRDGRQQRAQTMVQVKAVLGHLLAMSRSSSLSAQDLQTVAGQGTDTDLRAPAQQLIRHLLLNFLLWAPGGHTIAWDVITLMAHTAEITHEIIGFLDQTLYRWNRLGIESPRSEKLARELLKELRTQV

FANCI = target: T3, FANCI (human, UniProt Q9NVI1 1-1328)
T3 sequence: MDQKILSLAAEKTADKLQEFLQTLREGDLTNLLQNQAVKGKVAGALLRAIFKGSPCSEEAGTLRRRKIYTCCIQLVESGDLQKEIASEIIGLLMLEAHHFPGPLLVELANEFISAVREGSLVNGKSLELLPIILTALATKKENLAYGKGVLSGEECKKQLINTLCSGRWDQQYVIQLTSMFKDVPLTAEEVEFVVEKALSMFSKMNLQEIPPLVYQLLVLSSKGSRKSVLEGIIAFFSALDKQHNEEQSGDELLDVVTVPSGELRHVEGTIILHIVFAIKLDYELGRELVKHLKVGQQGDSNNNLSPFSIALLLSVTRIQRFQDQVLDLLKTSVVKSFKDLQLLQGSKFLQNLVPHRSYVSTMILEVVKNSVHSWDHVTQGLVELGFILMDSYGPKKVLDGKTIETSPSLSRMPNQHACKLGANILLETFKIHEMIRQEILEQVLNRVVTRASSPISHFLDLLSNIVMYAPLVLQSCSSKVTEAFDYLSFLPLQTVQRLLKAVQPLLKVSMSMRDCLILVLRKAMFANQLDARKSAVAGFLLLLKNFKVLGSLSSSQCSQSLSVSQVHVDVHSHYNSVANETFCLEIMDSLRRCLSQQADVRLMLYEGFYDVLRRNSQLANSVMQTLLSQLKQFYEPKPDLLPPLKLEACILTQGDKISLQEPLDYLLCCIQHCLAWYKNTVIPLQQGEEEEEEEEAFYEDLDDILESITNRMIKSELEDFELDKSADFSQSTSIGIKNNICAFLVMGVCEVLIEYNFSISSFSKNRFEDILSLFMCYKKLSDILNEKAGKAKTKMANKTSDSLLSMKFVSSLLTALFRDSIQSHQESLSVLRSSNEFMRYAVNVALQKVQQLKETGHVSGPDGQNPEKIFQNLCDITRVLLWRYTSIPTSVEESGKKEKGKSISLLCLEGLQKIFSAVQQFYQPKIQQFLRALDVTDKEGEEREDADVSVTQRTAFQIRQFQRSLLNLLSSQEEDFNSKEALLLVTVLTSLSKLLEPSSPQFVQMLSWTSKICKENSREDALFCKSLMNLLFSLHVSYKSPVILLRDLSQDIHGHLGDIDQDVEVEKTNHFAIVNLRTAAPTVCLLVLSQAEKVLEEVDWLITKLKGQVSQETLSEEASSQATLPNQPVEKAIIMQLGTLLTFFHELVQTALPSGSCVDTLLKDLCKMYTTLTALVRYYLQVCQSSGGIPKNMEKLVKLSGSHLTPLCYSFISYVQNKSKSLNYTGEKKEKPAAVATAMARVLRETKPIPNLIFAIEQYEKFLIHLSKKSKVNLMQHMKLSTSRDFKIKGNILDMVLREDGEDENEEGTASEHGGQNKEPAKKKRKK

Measured: binding result

B1: FANCL (enzyme)
chain: MAVTEASLLRQCPLLLPQNRSKTVYEGFISAQGRDFHLRIVLPEDLQLKNARLLCSWQLRTILSGYHRIVQQRMQHSPDLMSFMMELKMLLEVALKNRQELYALPPPPQFYSSLIEEIGTLGWDKLVYADTCFSTIKLKAEDASGREHLITLKLKAKYPAESPDYFVDFPVPFCASWTPQSSLISIYSQFLAAIESLKAFWDVMDEIDEKTWVLEPEKPPRSATARRIALGNNVSINIEVDPRHPTMLPECFFLGADHVVKPLGIKLSRNIHLWDPENSVLQNLKDVLEIDFPARAILEKSDFTMDCGICYAYQLDGTIPDQVCDNSQCGQPFHQICLYEWLRGLLTSRQSFNIIFGECPYCSKPITLKMSGRKH
binds: all assays above
